Assay results as given in the supplement of paper PMC9112550, “Optimization of the antimicrobial peptide Bac7 by deep mutational scanning” (BMC Biology, 2022).

system: Escherichia coli TOP10; test: shrunken log2 fold change of peptide-encoding DNA abundance (4.5 h post-induction vs induction); higher = less antimicrobial activity (less host growth inhibition); settings: time post-induction: 4.5 h; library: site-saturation at positions 5, 18, 19, 20
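Note: peptides expressed intracellularly from a pBAD plasmid library in pooled LB shake-flask culture, induced with 0.3% L-arabinose, DNA abundance read by NGS, three biological replicates, DESeq2 with apeglm shrinkage.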

| Sequence | shrunken log2 fold change |
| --- | --- |
| RRIRDRPPRLPRPRPRPRIWPRP | 0.53 |
| RRIRCRPPRLPRPRPRPRTRPRP | 0.47 |
| RRIRVRPPRLPRPRPRPPATPRP | 0.18 |
| RRIRWRPPRLPRPRPRPHFDPRP | -0.0757 |
| RRIRWRPPRLPRPRPRPKNEPRP | 0.177 |
| RRIRKRPPRLPRPRPRPWWKPRP | -0.103 |
| RRIRSRPPRLPRPRPRPVTEPRP | -0.0851 |
| RRIRKRPPRLPRPRPRPGAVPRP | 0.749 |
| RRIRHRPPRLPRPRPRPVTLPRP | -0.175 |
| RRIRGRPPRLPRPRPRPGFAPRP | 0.831 |
| RRIRDRPPRLPRPRPRPVGDPRP | 0.47 |
| RRIRCRPPRLPRPRPRPSIIPRP | -0.348 |
| RRIRRRPPRLPRPRPRPWRHPRP | 0.0972 |
| RRIRHRPPRLPRPRPRPWKEPRP | -0.0223 |
| RRIRSRPPRLPRPRPRPDIVPRP | 0.252 |
| RRIRFRPPRLPRPRPRPPMSPRP | 0.0816 |
| RRIRMRPPRLPRPRPRPMKFPRP | 0.0534 |
| RRIRRRPPRLPRPRPRPIHMPRP | -0.206 |
| RRIRQRPPRLPRPRPRPGHRPRP | 0.0349 |
| RRIRKRPPRLPRPRPRPGPDPRP | 0.608 |
| RRIRSRPPRLPRPRPRPRLQPRP | 0.307 |
| RRIRSRPPRLPRPRPRPLFPPRP | -0.00148 |
| RRIRIRPPRLPRPRPRPAVGPRP | 0.455 |
| RRIRPRPPRLPRPRPRPTKCPRP | -0.0849 |
| RRIRWRPPRLPRPRPRPNFKPRP | -0.264 |

| Sequence | shrunken log2 fold change |
| --- | --- |
| RRIRTRPPRLPRPRPRPWMGPRP | -0.116 |
| RRIRWRPPRLPRPRPRPERLPRP | 0.277 |
| RRIRERPPRLPRPRPRPTGHPRP | -0.0413 |
| RRIRGRPPRLPRPRPRPKIIPRP | 0.303 |
| RRIRQRPPRLPRPRPRPLTNPRP | -0.483 |
| RRIRARPPRLPRPRPRPHDRPRP | 0.128 |
| RRIRNRPPRLPRPRPRPSVHPRP | -0.311 |
| RRIRFRPPRLPRPRPRPFYQPRP | -0.537 |
| RRIRMRPPRLPRPRPRPYNEPRP | -0.811 |
| RRIRFRPPRLPRPRPRPCHLPRP | -0.0779 |
| RRIRTRPPRLPRPRPRPVLTPRP | 1.21 |
| RRIRDRPPRLPRPRPRPGADPRP | 0.655 |
| RRIRYRPPRLPRPRPRPIEVPRP | -0.217 |
| RRIRIRPPRLPRPRPRPIMMPRP | -0.132 |
| RRIRKRPPRLPRPRPRPGVHPRP | 0.195 |
| RRIRQRPPRLPRPRPRPLKAPRP | -0.253 |
| RRIRKRPPRLPRPRPRPDKNPRP | 0.159 |
| RRIRSRPPRLPRPRPRPWTPPRP | -0.154 |
| RRIRYRPPRLPRPRPRPFWVPRP | -0.0684 |
| RRIRPRPPRLPRPRPRPRIQPRP | 0.389 |
| RRIRERPPRLPRPRPRPQGFPRP | -0.144 |
| RRIRVRPPRLPRPRPRPFEMPRP | -0.572 |
| RRIRKRPPRLPRPRPRPLFYPRP | -0.0645 |
| RRIRMRPPRLPRPRPRPCRSPRP | 0.0369 |
| RRIRLRPPRLPRPRPRPGRQPRP | 0.207 |

| Sequence | shrunken log2 fold change |
| --- | --- |
| RRIRFRPPRLPRPRPRPIVWPRP | 0.0539 |
| RRIRSRPPRLPRPRPRPRCIPRP | -0.155 |
| RRIRWRPPRLPRPRPRPKFMPRP | -0.0525 |
| RRIRIRPPRLPRPRPRPPDSPRP | -0.0582 |
| RRIRCRPPRLPRPRPRPVPRPRP | 0.534 |
| RRIRVRPPRLPRPRPRPKNEPRP | 0.00832 |
| RRIRHRPPRLPRPRPRPHPNPRP | -0.063 |
| RRIRIRPPRLPRPRPRPMSCPRP | -0.141 |
| RRIRRRPPRLPRPRPRPSEDPRP | 0.0524 |
| RRIRCRPPRLPRPRPRPMISPRP | -0.235 |
| RRIRDRPPRLPRPRPRPLFWPRP | 0.516 |
| RRIRFRPPRLPRPRPRPCQDPRP | -0.148 |
| RRIRQRPPRLPRPRPRPDYFPRP | -0.198 |
| RRIRARPPRLPRPRPRPVRKPRP | 0.763 |
| RRIRGRPPRLPRPRPRPDDAPRP | 0.314 |
| RRIRIRPPRLPRPRPRPNIMPRP | -0.947 |
| RRIRWRPPRLPRPRPRPCYPPRP | -0.466 |
| RRIRMRPPRLPRPRPRPHSHPRP | 0.0536 |
| RRIRIRPPRLPRPRPRPVENPRP | -0.0976 |
| RRIRWRPPRLPRPRPRPQEEPRP | 0.0983 |
| RRIRERPPRLPRPRPRPHLVPRP | -0.125 |
| RRIRHRPPRLPRPRPRPVRYPRP | -0.551 |
| RRIRFRPPRLPRPRPRPSVTPRP | -0.322 |
| RRIRMRPPRLPRPRPRPVQYPRP | 0.0273 |
| RRIRIRPPRLPRPRPRPYKCPRP | -0.199 |

| Sequence | shrunken log2 fold change |
| --- | --- |
| RRIRLRPPRLPRPRPRPKSKPRP | -0.071 |
| RRIRRRPPRLPRPRPRPFPSPRP | 0.114 |
| RRIRPRPPRLPRPRPRPTDGPRP | -0.0563 |
| RRIRKRPPRLPRPRPRPQDRPRP | 0.201 |
| RRIRERPPRLPRPRPRPKFYPRP | -0.519 |
| RRIRGRPPRLPRPRPRPFILPRP | -0.196 |
| RRIRHRPPRLPRPRPRPRNTPRP | -0.229 |
| RRIRWRPPRLPRPRPRPEPWPRP | 0.725 |
| RRIRSRPPRLPRPRPRPWQMPRP | 0.0651 |
| RRIRKRPPRLPRPRPRPRMTPRP | 0.635 |
| RRIRVRPPRLPRPRPRPHGFPRP | -0.017 |
| RRIRKRPPRLPRPRPRPAGLPRP | 0.126 |
| RRIRTRPPRLPRPRPRPRQKPRP | 0.0911 |
| RRIRQRPPRLPRPRPRPSNIPRP | -0.286 |
| RRIRFRPPRLPRPRPRPYAHPRP | -0.18 |
| RRIRGRPPRLPRPRPRPFLAPRP | 0.525 |
| RRIRHRPPRLPRPRPRPMWPPRP | 0.0906 |
| RRIRMRPPRLPRPRPRPKHCPRP | 0.0651 |
| RRIRMRPPRLPRPRPRPPMVPRP | 0.188 |
| RRIRDRPPRLPRPRPRPYLRPRP | -0.0137 |
| RRIRPRPPRLPRPRPRPSNGPRP | -0.113 |
| RRIRHRPPRLPRPRPRPGKFPRP | -0.175 |
| RRIRHRPPRLPRPRPRPTHLPRP | -0.102 |
| RRIRFRPPRLPRPRPRPAWIPRP | -0.106 |
| RRIRDRPPRLPRPRPRPQLHPRP | 0.267 |

| Sequence | shrunken log2 fold change |
| --- | --- |
| RRIRGRPPRLPRPRPRPIGVPRP | -0.0542 |
| RRIRNRPPRLPRPRPRPKTEPRP | -0.067 |
| RRIRFRPPRLPRPRPRPDTTPRP | 0.00968 |
| RRIRWRPPRLPRPRPRPLSAPRP | 0.553 |
| RRIRNRPPRLPRPRPRPRENPRP | -0.0577 |
| RRIRKRPPRLPRPRPRPWLCPRP | 0.466 |
| RRIRSRPPRLPRPRPRPPSMPRP | 0.13 |
| RRIRQRPPRLPRPRPRPAMPPRP | 0.306 |
| RRIRMRPPRLPRPRPRPPRWPRP | -0.117 |
| RRIRQRPPRLPRPRPRPHNAPRP | -0.0184 |
| RRIRFRPPRLPRPRPRPNGTPRP | -0.419 |
| RRIRKRPPRLPRPRPRPYTAPRP | -0.338 |
| RRIRMRPPRLPRPRPRPHPHPRP | 0.187 |
| RRIRSRPPRLPRPRPRPQLYPRP | -0.071 |
| RRIRVRPPRLPRPRPRPWYEPRP | -0.337 |
| RRIRDRPPRLPRPRPRPGMPPRP | -0.221 |
| RRIRIRPPRLPRPRPRPGNYPRP | -0.261 |
| RRIRGRPPRLPRPRPRPRITPRP | 0.792 |
| RRIRLRPPRLPRPRPRPNQEPRP | 0.0423 |
| RRIRSRPPRLPRPRPRPRIQPRP | -0.00704 |
| RRIRHRPPRLPRPRPRPKRGPRP | 0.0662 |
| RRIRMRPPRLPRPRPRPRVTPRP | 0.467 |
| RRIRFRPPRLPRPRPRPQDAPRP | -0.0849 |
| RRIRKRPPRLPRPRPRPRVVPRP | 0.143 |
| RRIRIRPPRLPRPRPRPRCTPRP | -0.141 |

| Sequence | shrunken log2 fold change |
| --- | --- |
| RRIRDRPPRLPRPRPRPCHMPRP | 0.00148 |
| RRIRARPPRLPRPRPRPDRFPRP | 0.414 |
| RRIRQRPPRLPRPRPRPSYWPRP | -0.0858 |
| RRIRHRPPRLPRPRPRPYVYPRP | -0.0796 |
| RRIRGRPPRLPRPRPRPAIYPRP | 0.302 |
| RRIRARPPRLPRPRPRPIAEPRP | 0.42 |
| RRIRCRPPRLPRPRPRPQPVPRP | 0.399 |
| RRIRGRPPRLPRPRPRPFWGPRP | 0.289 |
| RRIRYRPPRLPRPRPRPYPQPRP | -0.466 |
| RRIRNRPPRLPRPRPRPEVQPRP | 0.0358 |
| RRIRMRPPRLPRPRPRPPEEPRP | 2.13 |
| RRIRHRPPRLPRPRPRPGFTPRP | -0.358 |
| RRIRYRPPRLPRPRPRPYRIPRP | -0.731 |
| RRIRCRPPRLPRPRPRPTKMPRP | -0.301 |
| RRIRKRPPRLPRPRPRPFLKPRP | 0.0443 |
| RRIRERPPRLPRPRPRPCMDPRP | -0.151 |
| RRIRHRPPRLPRPRPRPNMMPRP | -0.263 |
| RRIRYRPPRLPRPRPRPWPRPRP | 0.209 |
| RRIRARPPRLPRPRPRPMRTPRP | 0.802 |
| RRIRPRPPRLPRPRPRPDQRPRP | 0.015 |
| RRIRGRPPRLPRPRPRPDLYPRP | 0.574 |
| RRIRTRPPRLPRPRPRPNWIPRP | -0.289 |
| RRIRIRPPRLPRPRPRPNCTPRP | -0.663 |
| RRIRKRPPRLPRPRPRPHFMPRP | -0.171 |
| RRIRWRPPRLPRPRPRPGLCPRP | 0.412 |
